In a protein production outcome set (Wang et al. 2014):

Assay: label from the status in PepcDB records
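Further: failed if final PepcDB status was selected cloned or expressed and not failed if soluble or beyond.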

Sequence	protein production
MRGLRSESKVLELVVIPADHSIAELLKMKENEPVNKLVRVRYAEGEPLQYHTSYIPWKAAPGLAQEECTGSLFELLRTKYNIEISRGTESIEPILTDETISGHLLTNVGAPAFLSESLTYDKNEEVVEYAQIITRGDRTKFTVEQSYHS	failed
MRGTAAIEGPGSQSMITRRGFLRFIGGSFLTAAALGAYAVGIEPMLLTHVKRYALTPPHWPDGLKLRVVALADIHACRPWMTQERIASLVEDANALQPDLIVLLGDYIAGMPLVTGPVTPSQWASALSGLKAPLGVLSILGNHDWWSDGFAQRAGAGPIIARKALEKVGIPVLENDVVRLEKDGQSVWIAGLADQLALLPARKGDDCKGLDDLDGTLAKVGDTAPIILLAHEPDIFPTVPSRVSLTLSGHTHGGQVRLFGYSPVVPSRFGNRYAYGHVVEKDRNLIVSGGLGFSIMPVRFGVRPEILQIDLG	failed
MRGWILYKETATQLKPEWYEIERLLAAAKADNIELEVYAPDEFDLTVTREDNKSILLNGQPVELPDFIIPRMGSGTTYFALAIIRHLERLGVYCLNPSKAIEIVKDKLFSQQLLAEKNLPTPKTMLVKFPVDIDLVERHLGFPVVIKTLSGSQGSGVFLSHKAREFDDLMQLIEATNKNANIILQEFIANSHGRDLRVFTIGGRVAGCYERRGQEDSFKANVSAGGSARPFDITPEIEWLATQTANILDLDVAGIDLLFDNGHYKICEANSSPGFEGLESCLNVDIAAQILHFIRIRLGMFNKDEKNSDPQLTHAGPALANNVTSSKAAE	failed
MRGWTAVTDTAGTPSGDGPEQAAVPGPGGGASPIGAGLVRRRRRWLRHTAFGVAALVLGAAGAGWAVYEKLNSNITADEAAAAELARYEKERPTSLVRDAQNILLIGSDSRSGDGNSQYGRDTGTERSDTTILLHLPANRHSATAVSLPRDLMVDIPSCRRPDGTRTAPTFAMFNQAFETGGSACTIRTAEKLTNVRIDHHMVVDFSGFKEMVDAVDGVEVCLKDPIDDKDAKLRLPAGKQLLDGEQALGYVRARKSIGNGSDTDRMDRQQRFLGALVNKVQGNDVLLNPVKLYPVLDAATSSLTTDPDLASLRGLYELVRGMRNIPPERVQFLTVPRTSYVNNANRDQLVEPDAEKLFARLRADAPLEVAKDYAGYDEQSGGDGTLSGKPLDTPAGTPDPTPTFRGNTAAEDGCE	failed
MRHDDARGRPGTRIAWRATFAAKRGEALRADHLRYRPQAGSPGALHCFVLDCSASMLTAERLARAKGLVVALFDSLARERADAALVCFGGNSAGVRFGPAVPRWWNERWLAPVGAGGGTPLARGIGAATRLLARAARRRPRQQRWLWLLSDGRTTEAPARPAFADRIVIVDFDDAAVRLGRCERLAHAWGAALVTPQALERGGG	failed
MRHITTHDAPATGLRSIADTSWHVRGACHGMDIEDADAVFFPGPRDHEEIAEAKELCGWCPVRRACLDFALENVLKEGVWGGLTEAERRPL	failed
MRIDTQEQLVTLLNALFEKVGINLEQVSKLDNYGVMFSVPGTMKPLIATLKTVTTPTNWNNETNLGHYKSADENWLLCLKPAPHSVFCIATVCSLHEKHLEQYIETSEKKQDRRIAAEHGDPEAQYYTAQDCEDKTEALFWYRKAGEQNHYWALYQIALMYEAGEGGLEKDFAQAILWRGKAAEQGSDAAARDLAEMYEEGTADIPQDLTLAIFWYERWLELSPVMRRMIKPKIKSLKAALSQRMNE	failed
MRIEAAELRILELPLKFRFETSFGVQTKRTILLLRLFGEGLEGLGEGVMERLPLYREETVAGARYLLEEVFLPRVLGRDLPNPEALREALAPFRGNPMAKAVLEMAFFDLWAKALGRPLWQVLGGVRQAVEVGVSLGIQPSVEDTLRVVERHLEEGYRRIKLKIKPGWDYEVLKAVREAFPEATLTADANSAYSLANLAQLKRLDELRLDYIEQPLAYDDLLDHAKLQRELSTPICLDESLTGAEKARKAIELGAGRVFNVKPARLGGHGESLRVHALAESAGIPLWMGGMLEAGVGRAHNLHLATLPGFTKPGDVSSASRYWEEDIVEEALEAKDGLMPVPEGVGIGVHLKLPFVERVTLWQRYMSAS	not failed
MRIEVVNVSHIFHRGTPLEKKALENVSLVINEGECLLVAGNTGSGKSTLLQIVAGLIEPTSGDVLYDGERKKGYEIRRNIGIAFQYPEDQFFAERVFDEVAFAVKNFYPDRDPVPLVKKAMEFVGLDFDSFKDRVPFFLSGGEKRRVAIASVIVHEPDILILDEPLVGLDREGKTDLLRIVEKWKTLGKTVILISHDIETVINHVDRVVVLEKGKKVFDGTRMEFLEKYDPRFFTSKMLVMRRLVLKGEDPFSMSDDELLERVCNS	not failed
MRIFIAFEGSFEAFDVAAHTSVGAIKQMVKDYFHIPLSEDKQGRWYLELTYAGAALKNNWSLSDVGISFCSTLKCFVKKEDKPTLYVFNAVTQETMAIKENMSILDRKVSDLRMLVTLSCGFPVSVYCLRTPAGLEMYDCNTLKDYQTDIGTTLRLDVWDGWKEFLMGCLLGQKPKVQRYLSKEGPVLKYQKRVALYIAAFHGHTELTEWALKQGAQPHEAVGVHPCRAWCHEALHTDVSNCPIHAAAEAGQLLILKAFVNFSVLCLECKNAAGQSPLAIASKHQHKDCVLYLLSKIWSTVSFLKLSVPMRIYIKIKQWILRAQTRRCHKSQPSRARVSGAKVGDTVMVDGFTKPKMTSKSWYKAEDKSWHTAQSKLPPCKQQPSRKPIGSLPMSQHDTKKQIFTFPSLVDAKNFSEVQSYQQENQKKIAAPARKEKNIKNPYLPQVPLPPVSRVHYAHPQFYCTPPSGDCLLRSLFKSFSEHSGRTPRENAIYCLAVASAFKEKRWLQQLEIARVLAKRSISNLTVKGGPAKCENYPESVL	failed
MRIGMRLLLGYFLLVAVAAWFVLAIFVKEVKPGVRRATEGTLIDTATLLAELARPDLLSGDPTHGQLAQAFNQLQHRPFRANIGGINKVRNEYHVYMTDAHGKVLFDSANKAVGQDYSRWNDVWLTLRGQYGARSTLQNPADPESSVMYVAAPIMGGSRLIGVLSVGKPNAAMAPVIKRSERRILWASAILLGIALVIGAGMVWWINRSIARLTRYADSVTDNKPVPLPDLGSSELRKLAQALESMRVKLEGKNYIEQYVYALTHELKSPLAAIRGAAEILREGPPPEVVARFTDNILTQNARMQALVETLLRQARLENRQEVVLTAVDVAALFRRVSEARTVQLAEKNITLHVMPTEVNVAAEPALLDQALGNLLDNAIDFTPESGCITLSAEVDQEHVTLKVLDTGSGIPDYALSRIFERFYSLPRANGQKSSGLGLAFVSEVARLFNGEVTLRNVQEGGVLASLRLHRHFT	failed
MRIHDIDPDNRPRERFLRSGKESLSPAELLALILRSGTAGLNIIDTCNKLISEHGLERLADLSIQELQKTPGIGEAKAMQIAAIFELQRRLHFARNMNLKVKGARDVFEYMKGRIPDETKEHLFVLFLSTKNQILRHETITIGTLTASLIHPREIFKAAIRESAHSIILVHNHPSGDVQPSNADKQVTSILKKAGDLLQIELLDHVIVGNNDWFSFRDHALL	failed
MRIIKFPEQISEDIIHYTFLDDIISYNCEKCRGSCCHVNNSLLLDAKTASFLKRTYLKDFIVSDDSVSLLSCGKKCWFHSELGCTINDLGLNKPLTCELYPFHIKKIQNFYIVSFTPCPTFQLNLGEGQRYKDIEDVVLRYIKTGVPVFSPSLHVSEERLKYEIEYQNNFKNTLSEYYRTKTADGTTEFKEYEKWYIYYLDFRWGSIPLSYTSSQANQFWNLYKRVCEDVYKKISYIRTDNIYFIIANQFNKTISKHFQLNFIDKELEHHHHHH	not failed
MRIKNKCLVLLIPLGISIMFDIRVKAFQPVSHYVVIEQAESKMSNDSIIRKAIEAYPNVAAWGSVGPDLGYMQVGELGDYSPWGDRYHYYKVGTYAAKQLKNALETRDMKKIAFAAGWISHVTGDLACHGIYVNPECGVYLDNKDGRKQHKHMEAEAEPYAWVNIAGHSINDYNSNNMSNNVFKGTDDIPFDLMNETSKEVYGQSPSTAEEKLWASTLLTGLRTGVGYSYTDYNESKQFLSINSREQRLNASFSQGINQCYKLLTYSENGDYSKFTDRWNLDVGKSSSPISSLTTIISTGTNLGSGTDDDIYFGIHLNNGQKKEWLLDKETYNDFENGATDEYYLYINDMDFLPTMVDKVWVRKNSTGSFAGNWFFKALRIDANGNDVLSVSPNEWITDSNSQAEFNSDWSSVTNLTDPEF	failed
MRILLVEDDELIGELLVKSLTSQHYTVDFAKDGQEGWDFAELYTYDLILLDLILPKLDGISFCRQLRASGNQTPILLLTSQDTSITKVTGLDAGADDYVAKPFDFQELLARIRALLRRGGSALPPLLEWNNLRLDPSTCEVACDGKLLHLTPKEYGLLELFLRNSHRIFSCSALIDQLWSFEEPPTEDTVRSHIKGLRQKLKAAGVVEDPIDTVYGIGYRLKPVQPGREEELNTEKVVAAIANPVENEVRKVWEDVVEKIEQRVAVIEQASHKLLQNKVSEEILSKAKVEAHKLAGSLGMFGSDEGSQIAQEIESLLDNGKKLKASGGKHLGQVVEALHQELENLKSGYKTELSVVETKADDRPLVLVIDQDQELVRESRSQGSEAIAPGQLTDARVMIVDDDPQILTTLQTLLSAWGIKVYTLPHPQGFLAARLGNLAEIDTLTLVANRRKSTQELNHYLQWCHTHQQTLSFAVVKLDGLKQINYNYGHEIGDRVLSQLGELLRQMFHSQDVVGRWGGTEFILGMAGITKGEGVRRLGELLKTFRQIEFINTSNQSFHATLSAAVVEYPQDGDKLEVLYQAADIVLHQSKATGRNRVLSS	failed
MRILSIHLKNIKSHRDTELTFSAGINVLSGPNGVGKSTVFEAIGYALFGVDARDFVSNVDRFLSIGTKKGEIAVAFCTDAGETWRVTRTVGTPAKWLLAREQGGAFEVEEHARIEETEARIAELLGLDNGRPLAEQFKLVIGPFQNEFLGPFVIKQPTKRQEAFDEILGIDAWRKTYKSTSSLLSAVQEKIKIIAVEIEAKEAQVAVLPEREDELAKIKTDAEALRKVLSSQADALRDVEKQLVELDDQEKGIAALQAEIQILVNRITDGEGKIKDQGQRVGEAEKAGGVLEQTRAGKEAFERAESRLAELVSKDKQRREVEKDVTRLENETQRLTQAVEHEQKEIEGEGRRLREEEDALAKARNELEPDRKVVDTAGRLPGLRDEINRVRSEKGLLEGRRIGLLEGQEKLGEGTCPFFKEPCRNVAGTTPKDVFTTRIAELDRKMQALTEALGKLSVEVADAEAAEKQLAALTVRSQELHKQTMGLVERRARNEKRVATLQTLSTQQIEAATRAKARRDDLQVFAGLDHEIERATAERGRFQADRDAYHAHEKDALDLDNRRQTLEKMLRLLDELQKQLIGKKEELIRLQETYKPGQHKEARDQKDRLVAQVASLGQQIENLEKDRKRLEDEIGKLKLLKDEIGRKQAERNSFEQKEKLVKFLRNQVFKNVSAQLSERFREEISLRADRIYRTIAEADEELVWSENYQIVLRDMTDGVVRERSDDQLSGGQTMSAVVALRLALLQTIGARIAFFDEPTSNLDASRRENLATAFRAIDVGREEVTEHWYDQLFLISHDVAFTEITDQMIQLGE	failed
MRIQMATKSSKKYKGVYCDNKGKIFYQIDLGIDPVTGKRVQKKARKNQYGKTFETMKEAYDELVRIKYEFANKVHLENYNMTFENYMNTIYLRAYKQKVQSVTYKTALPHHKLFIQYFGSKPLKAITPRDCEAFRLHIIENYSENYAKNLWSRFKACMGYAERLGYISDMPCKALDNPRGKHPETPFWTYAEFQTFIKSFDLHDYEELQRFTAIWLYYMTGVRVSEGLSLCWEDIDFDKKFLKVHTTLEKDENGNWYRKDQTKTPAGERLIELDDITIEVLQVWRKNQFANQDTDFIISRFGDPFCKSTICRIIKRKAQQVGVPVITGKGLRHSHASYLINVLKKDILYVARRMGHADKSTTLNTYSHWFNALDKTVSEEITQNIKSAGLDSILCQNSCQTSN	failed
MRIRLFAFCLLLGGCQSQLPPLPDWQSPEGRDDPQTGRIVELRSGVTLSPQQLVARLAAAPRVIVGEKHDNPDHHAVELWLAQALGEYRAQGSLLLEMLDPGQQPRVDAVRAQLGNGKPVANLEEALDWQKGWDWTQYGPLVSWAVAQPAPLLAANLQRSEIMRIYRERPPLPGTASRRDSVRLPLLAQIRESHCGMLPDDQLPAMLAVQQQRDRRMAERLRDAPRPAMLVAGSFHARRDLGVPVHLRDLGAEKGTQVLMLVEAGQAVTTREADYAWYTPAQPDKDYCAEMKKARLEHHHHHH	failed
